Laboratory results: the supplement of paper PMC10567573

B1: ZNF8 (parent)
chain: KPYTCSVCGKSFSRTTCLFLHLRT
B2: IRX6 (parent)
chain: YPCLEKPRIWSLAHTATASAVEGA

Variants of: B1
Assay: protein stability index of a GFP-peptide fusion (GPS, HEK-293T) (PSI 1-6); higher = more stable
Conditions: c terminus: a fixed tail appended
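Note: lentivirally expressed fusions sorted by FACS into six bins by GFP to DsRed ratio, PSI derived from sequencing read proportions per bin multiplied by bin number.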

| Variant | protein stability index |
| --- | --- |
| KPYTCSVCGKSFSRTTCLFLHCRT | 2.24 |
| KPYTCSVCGKSFSRTTCLFLHDRT | 2.04 |
| KPYTCSVCGKSFSRTTCLFLHERT | 2.31 |
| KPYTCSVCGKSFSRTTCLFLHFRT | 1.82 |
| KPYTCSVCGKSFSRTTCLFLHGRT | 2.03 |
| KPYTCSVCGKSFSRTTCLFLHHRT | 1.81 |
| KPYTCSVCGKSFSRTTCLFLHIRT | 1.96 |
| KPYTCSVCGKSFSRTTCLFLHKRT | 2.74 |
| KPYTCSVCGKSFSRTTCLFLHMRT | 3.01 |
| KPYTCSVCGKSFSRTTCLFLHNRT | 2.57 |
| KPYTCSVCGKSFSRTTCLFLHPRT | 2.78 |
| KPYTCSVCGKSFSRTTCLFLHRRT | 2.34 |
| KPYTCSVCGKSFSRTTCLFLHSRT | 2.11 |
| KPYTCSVCGKSFSRTTCLFLHTRT | 2.1 |
| KPYTCSVCGKSFSRTTCLFLHVRT | 1.85 |
| KPYTCSVCGKSFSRTTCLFLHWRT | 1.74 |
| KPYTCSVCGKSFSRTTCLFLHYRT | 1.8 |
| KPYTCSVCGKSFSRTTCLFLHLAT | 2.29 |
| KPYTCSVCGKSFSRTTCLFLHLCT | 2.06 |
| KPYTCSVCGKSFSRTTCLFLHLDT | 1.91 |
| KPYTCSVCGKSFSRTTCLFLHLET | 2.26 |
| KPYTCSVCGKSFSRTTCLFLHLFT | 1.64 |
| KPYTCSVCGKSFSRTTCLFLHLGT | 1.9 |
| KPYTCSVCGKSFSRTTCLFLHLHT | 2.32 |
| KPYTCSVCGKSFSRTTCLFLHLIT | 2.05 |
| KPYTCSVCGKSFSRTTCLFLHLKT | 2.06 |
| KPYTCSVCGKSFSRTTCLFLHLLT | 1.65 |
| KPYTCSVCGKSFSRTTCLFLHLMT | 2.23 |

| Variant | protein stability index |
| --- | --- |
| KPYTCSVCGKSFSRTTCLFLHLNT | 1.75 |
| KPYTCSVCGKSFSRTTCLFLHLPT | 2.5 |
| KPYTCSVCGKSFSRTTCLFLHLQT | 2.59 |
| KPYTCSVCGKSFSRTTCLFLHLST | 1.83 |
| KPYTCSVCGKSFSRTTCLFLHLTT | 1.95 |
| KPYTCSVCGKSFSRTTCLFLHLVT | 2 |
| KPYTCSVCGKSFSRTTCLFLHLWT | 1.75 |
| KPYTCSVCGKSFSRTTCLFLHLYT | 1.84 |
| KPYTCSVCGKSFSRTTCLFLHLRA | 1.96 |
| KPYTCSVCGKSFSRTTCLFLHLRC | 2.07 |
| KPYTCSVCGKSFSRTTCLFLHLRD | 2.12 |
| KPYTCSVCGKSFSRTTCLFLHLRE | 1.67 |
| KPYTCSVCGKSFSRTTCLFLHLRF | 2.02 |
| KPYTCSVCGKSFSRTTCLFLHLRG | 2.37 |
| KPYTCSVCGKSFSRTTCLFLHLRH | 2.96 |
| KPYTCSVCGKSFSRTTCLFLHLRI | 1.52 |
| KPYTCSVCGKSFSRTTCLFLHLRK | 2.29 |
| KPYTCSVCGKSFSRTTCLFLHLRL | 1.58 |
| KPYTCSVCGKSFSRTTCLFLHLRM | 2.44 |
| KPYTCSVCGKSFSRTTCLFLHLRN | 2.35 |
| KPYTCSVCGKSFSRTTCLFLHLRP | 2.19 |
| KPYTCSVCGKSFSRTTCLFLHLRQ | 1.9 |
| KPYTCSVCGKSFSRTTCLFLHLRR | 2.04 |
| KPYTCSVCGKSFSRTTCLFLHLRS | 1.89 |
| KPYTCSVCGKSFSRTTCLFLHLRV | 2.2 |
| KPYTCSVCGKSFSRTTCLFLHLRW | 2.5 |
| KPYTCSVCGKSFSRTTCLFLHLRY | 1.68 |

Variants of: B2
Assay: as above
Conditions: c terminus: a fixed tail appended

| Variant | protein stability index |
| --- | --- |
| APCLEKPRIWSLAHTATASAVEGA | 4.1 |
| CPCLEKPRIWSLAHTATASAVEGA | 2.82 |
| DPCLEKPRIWSLAHTATASAVEGA | 3.84 |
| EPCLEKPRIWSLAHTATASAVEGA | 4.33 |
| FPCLEKPRIWSLAHTATASAVEGA | 1.86 |
| GPCLEKPRIWSLAHTATASAVEGA | 3.53 |
| HPCLEKPRIWSLAHTATASAVEGA | 2.54 |
| IPCLEKPRIWSLAHTATASAVEGA | 2.88 |
| KPCLEKPRIWSLAHTATASAVEGA | 3.73 |
| LPCLEKPRIWSLAHTATASAVEGA | 3.59 |
| MPCLEKPRIWSLAHTATASAVEGA | 3.83 |
| NPCLEKPRIWSLAHTATASAVEGA | 3.84 |
| PPCLEKPRIWSLAHTATASAVEGA | 4.08 |
| QPCLEKPRIWSLAHTATASAVEGA | 3.79 |
| RPCLEKPRIWSLAHTATASAVEGA | 3.33 |
| SPCLEKPRIWSLAHTATASAVEGA | 3.81 |
| TPCLEKPRIWSLAHTATASAVEGA | 3.36 |
| VPCLEKPRIWSLAHTATASAVEGA | 3.89 |
| WPCLEKPRIWSLAHTATASAVEGA | 2.82 |
| YACLEKPRIWSLAHTATASAVEGA | 2.82 |

| Variant | protein stability index |
| --- | --- |
| YDCLEKPRIWSLAHTATASAVEGA | 2.28 |
| YECLEKPRIWSLAHTATASAVEGA | 2.29 |
| YFCLEKPRIWSLAHTATASAVEGA | 2.41 |
| YGCLEKPRIWSLAHTATASAVEGA | 3.7 |
| YHCLEKPRIWSLAHTATASAVEGA | 2.9 |
| YICLEKPRIWSLAHTATASAVEGA | 2.96 |
| YKCLEKPRIWSLAHTATASAVEGA | 2.82 |
| YLCLEKPRIWSLAHTATASAVEGA | 1.88 |
| YMCLEKPRIWSLAHTATASAVEGA | 3.06 |
| YNCLEKPRIWSLAHTATASAVEGA | 4.81 |
| YQCLEKPRIWSLAHTATASAVEGA | 2.98 |
| YRCLEKPRIWSLAHTATASAVEGA | 2.37 |
| YSCLEKPRIWSLAHTATASAVEGA | 1.7 |
| YTCLEKPRIWSLAHTATASAVEGA | 3.4 |
| YVCLEKPRIWSLAHTATASAVEGA | 2.51 |
| YWCLEKPRIWSLAHTATASAVEGA | 3.12 |
| YYCLEKPRIWSLAHTATASAVEGA | 2.69 |
| YPALEKPRIWSLAHTATASAVEGA | 1.96 |
| YPDLEKPRIWSLAHTATASAVEGA | 1.58 |
